Data as given in patent US20120184718A1.

Biological target: human FAS polypeptide (human) (UniProt P25445)
Test: cell-based or functional assay

Sequence of UniProt P25445 (P25445 26-335 limits assumed): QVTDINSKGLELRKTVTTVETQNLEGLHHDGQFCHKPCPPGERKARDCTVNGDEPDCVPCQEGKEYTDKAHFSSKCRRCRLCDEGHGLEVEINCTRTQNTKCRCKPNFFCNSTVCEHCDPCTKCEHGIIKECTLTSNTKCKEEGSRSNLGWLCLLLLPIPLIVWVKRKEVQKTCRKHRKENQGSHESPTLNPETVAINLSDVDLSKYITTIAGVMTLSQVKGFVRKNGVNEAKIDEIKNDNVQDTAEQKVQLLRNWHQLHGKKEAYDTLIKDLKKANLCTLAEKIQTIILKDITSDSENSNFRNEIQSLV

## HFE7A IgG (antibody)
  apoptosis (DNA fragmentation), U87-MG cells, 24 hours, cross-linked antibody (fold of cross-linked ApomAb): 2
